Results: the DeepSol protein solubility set

Experiment: soluble on expression in E. coli; label from the status in PepcDB or PDB records
In the case of “MIQVYKYDENFMFVEPLVVTEIDEKGDYIFPDNCTSVPLPDSPSYYLPRFDLSKQVWIETASQEYIDSLSPPPEEPSDVELLGQSLAEARILILKQNRIILNLQNEVKNLKDGTTALEHHHHHH”, the “soluble on expression in E. coli” value is reported as “soluble”. In the case of “MGSDKIHHHHHHMKLEELNSKYNAFITLHTIEEGNDKGKLKDVTFGIKDVILTKDVRTTAGSRVLENYVPQRNAYVVDAILREGGKIIGKTNTHEFALGATNTSSIGGPARNPVDPERISGGSSGGSAVAVKLDMVDVGIGTDTGGSVRIPSSLCGVIGFKPTTGLIPNDGVIPFSWSLDTVGIIVKDNIRLLRRVFDVVLPNEKRKVEIAKLRTRPRLGLFLFDDMEVSRILLKDIYAKLSSHFDIVEVDLPLLRQYGSKTRRTISLAEAASYHKDWISEYSDKYFKDTYTLLLDGMKISATDYIDALRHRRVLIEEYVKVFKNIDFILSPTTKIVAPRISDVISNPLQFREYLIANTELFNVVGAPSISVPFSTLNDLPAGLMISGELYKDGDLLEVAEYILNIVGKH”, the “soluble on expression in E. coli” value is reported as “not soluble”. With “MESAGFHYKLDIPAGTPDCAIVLLHGSGRTEDDLISFGRAVFPTGALYAPRGAVAWENGFAFFRRKPDRELDIDDLKHQATRLCHFVAFVFQQTGRRPILVGYSNGAIIAAETICQAHHLSKGAILLRPLSPRKDQSLPNLAGYPVLLLAGASDDRRHPSDAPHLSEQLTSAGADAVLETINTGHGWAEDAADERLSRQWLARLPIA” the “soluble on expression in E. coli” value was “not soluble”. With “MSLEKVGTIGVAIPSATHGFMGGLNFHAQDTIKRLQQVYPQLDFVLATAGNAGKMVNDIEDMVATRNISALVVLPFESEPLTSPVQAVKEAGIWVTVVDRGLSVEGIEDLYVAGDNPGFGRVAGEYFAQHLESGKKIVVLRGIPTTLDNERVEAFTAAIEGSGIEVLDMQHGNWNRDDAFNVMQDFLSKYPQIDAVWAADDDMAIGAMEAIAQAGRTEEMWVMGGAGMKEIIRRIADGDPQLPANVTYPPAQISTAIELTALKLVSSTPVSGRFIIGSQLVTPENAEQFYFPDSEGHHHHHH” the “soluble on expression in E. coli” value was “soluble”. In the case of “MQVQAPRRTPKIQQVVEFVESLDDNHRLKGKEDGETYLIEPNAISRIYIENRQVLAETTQGDYHLGLRLYQVLEILPAYFIKISQSEIVNLKEIERFNITPNRLVEIHLKTRKLATHHAVTSKQ”, the “soluble on expression in E. coli” value is reported as “not soluble”. With “MSKLFGNKSQRDLKEVKPFVDKIKVAYGEIERLSDDDLRGRTAILRQKIQDYVKDERAEIDKLKVEVEGKDLDEREEIWAQVDKLEKEILDKMEVVLDEILPEAFAIIKDTARRFAQNETIRVKATDLDRDLAINHDFVSIEGDTAVYQNHWVAGGNEILW” the “soluble on expression in E. coli” value was “not soluble”. For “HMSFSHVCQVGDPVLRGVAAPVERAQLGGPELQRLTQRLVQVMRRRRCVGLSAPQLGVPRQVLALELPEALCRECPPRQRALRQMEPFPLRVFVNPSLRVLDSRLVTFPEGCESVAGFLACVPRFQAVQISGLDPNGEQVVWQASGWAARIIQHEMDHLQGCLFIDKMDSRTFTNVYWMKVND”, the “soluble on expression in E. coli” value was “soluble”. For “GPGSDGVWLEELEMEPSQYLPDLKEDELLKTPAVMVNLNRPMPEVLQELSKHPVRTRLSLTGTIIVARDSAHARMREMLEAGKPLPQYMKEHPVYYAGPAKQPDGLPSGSFGPTTAGRMDPFVDLFQSHGGSMVMLAKGNRSKQVTKACHKYGGFYLGSIGGPAAVLAQNAIKKVECLDMKDLGMEAVWRIEVENFPAFIVVDDKGNDFFEQL”, the “soluble on expression in E. coli” value was “soluble”. With “MGSDKIHHHHHHMNTKVMTAIPFTIDRDWLFTHLHIKPGKPYVEDVENMIEQALTIGKPKAAYRLAYIESKGEDFVVVDGFKFTSRVLRVNLAETFKVVPYVITCGEELERWAKTFHHMFESYCADGIMEAVMHSARVAFFSQIAEEYNLGHAVNMNPGSLEDWPLKEQAPLFQLLGDVKSLIGVELKESFLMSPIKTVSGFRFSKEGSYENCQLCPREKCPGRRAPYEQNLYAEKYQLK” the “soluble on expression in E. coli” value was “not soluble”. In the case of “YVLAVTACPTGIAHTYMARDALKKQAEKMNIKIKVETNGSSGIKNHLTEQDIERATGIIVAADVHVETDRFDGKNVVEVPVADGIKRPEELINTALDTNRKPF”, the “soluble on expression in E. coli” value is reported as “not soluble”. In the case of “MGSDKIHHHHHHMYPNLTSEQALLILQSARNPDKAYDLFAQAAEVRDKVFGKRLWWSSGSGGIFPCLVKPRCSYCTYYTEKLFPTDVLLTGLELIESLGIQQFHISGGTDLDEGYDEQLLELVQAIKTRSGLKLEINLGPSFRQETVLELKKLGIDSVTSSLECNTPAIFARAKPGDSLERRRELLHHCEEADMPSRSMMLLGLGETDQERIEHLFYLQQFKKLYQLRLSRFMPFPGTLYKDRSRCSPWDTALITAMARLILPNLEISLAAGNSNDDIPLWYLAGGGSQLLGVSITRKEPPATPDVDVYAIGEGAYVVDKRQQVARVLEGMNLEVTCEMPDYRALQSQF”, the “soluble on expression in E. coli” value is reported as “not soluble”. With “MMAFAPPKNTDGPKMQTKMSTWTPLNHQLLNDRVFEERRALLGKWFDKWTDSQRRRILTGLLERCSLSQQKFCCRKLQEKIPAEALDFTTKLPRVLSLYIFSFLDPRSLCRCAQVCWHWKNLAELDQLWMLKCLRFNWYINFSPTPFEQGIWKKHYIQMVKELHITKPKTPPKDGFVIADVQLVTSNSPEEKQSPLSAFRSSSSLRKKNNSGEKALPPWRSSDKHPTDIIRFNYLDNRDPMETVQQGRRKRNQMTPDFSRQSHDKKNKLQDRTRLRKAQSMMSRRNPFPLCP” the “soluble on expression in E. coli” value was “not soluble”. With “MALSGIYKLDDGKPYLNNCFPARNLLRVPEEGQGHWLVVQKGNLKKKPKGLVGAQAERRESLKATSFEFKGKKESRRENQVDLPGHILDQAFLLKHHCVRKPSDLCTINAKENDFKHFHSVIYINASENLLPLEAFHTFPALKELDLAFNGIKTIYVKYGDFKLLEFLDLSFNSLTVEAICDLGILPHLRVLLLTGNGLTSLPPNLAVAEQEASVTSLTSKRYILRFPALETLMLDDNRLSNPSCFASLAGLRRLKKLSLDENRIIRIPYLQQVQLYDESVDWNGGRGSPHKEPQFMLQSKPRMLEDSDEQLDYTVLPMKKDVDRTGVPPLLKSFLQERLGIHLIRRKIVKPKHHVLMSRKESWKVKSEIPKVPKQPLVLHHPRMRTTKSPSKDMLEPEAELAEDLPTTKSTSVESEMPTENLEGHSPSCRTFVPLPPICSNSTVHSEETLSHLSDTTVRLSPERPSDEDSKSTESIFLTQVSELPSSVIHKDDLELKEKDQKKPPTAPREVKGTRRKLPTAFLPSKYHGYEELLTAKPDPAFIEPKGIQKNAQALQQMLKHPLLCHSSKPKLDTLQKPYVHKEKRVLSCTSGQNGGW” the “soluble on expression in E. coli” value was “not soluble”. In the case of “MGSDKIHHHHHHMNLKTTLFNTTYKFKDIKDVLAKANEKKSGDEMAGIAASGARERVAAKTVLADITLEELRNNPVVSYEKDEITRVIQDSVDEEQYKKIKALTVGEFREFLLENDEDKIKEIRDGLTSEMIAAVTKLMSNMDLVYAAQKICNTAKCNTTIGRRGTFSSRLQPNHPTDNPQGIMASLIDGISYGVGDAVIGLNPVADTIESVSDVLKVFNDFTRKWRIPTQNCVLAHITTQMEALKNGVPIDLMFQSIAGSEIANKDFGISVALLDEAYELMKTKKSSKGPNFMYFETGQGTELSSEGNNRADQLVMEARCYGLAKRYKPFLVNTVVGFIGPEYLYDGKQVIRAGLEDHFMGKLTGLSMGVDTCYTNHMKADQNDLENLAMLLLAANCNYLMGIPCGDDVMLMYQSSSYHDIATLREISDKRPIKEFEKRMEELGIMKNGKLTRNAGDPSIFM”, the “soluble on expression in E. coli” value is reported as “not soluble”. In the case of “MSAPFEERSGVVPCGTPWGQWYQTLEEVFIEVQVPPGTRAQDIQCGLQSRHVALAVGGREILKGKLFDSTIADEGTWTLEDRKMVRIVLTKTKRDAANCWTSLLESEYAADPWVQDQMQRKLTLERFQKENPGFDFSGAEISGNYTKGGPDFSNLEK”, the “soluble on expression in E. coli” value is reported as “soluble”. With “MSSFIEMIENITPDVYESLKLAVEIGKWSDGRKLTQEQRELSLQALIAWEAQNLPEDQRTGYMGPQECASKSAPVPNILFKSDAIH” the “soluble on expression in E. coli” value was “not soluble”. In the case of “MSLIDILVVDDDVAVCAALRLVLKRAGYNPVIANSPDEALSIMRNPDGGCKPAVILMDMNFSLSTSGREGLELLEKMQIFTSCPVILMTAWASIPLAVEGMRLGAFDFIGKPWDNDRLLRTIDTALHLAAPSAVANPSEQSDRDTARQPKATVQENDPCAHIIGRSDAICKIKERIRRIAPTHASVLITGESGTGKELIAEALHRGSKRASAPFVKVNLGGIPESLFESELFGHKKGAFTNAFSDRKGRFELADGGTIFLDEIGELPVGNQVKLLRVLQEQTFEPLGESVSHRVDIRVVSATNASLERMVAEGRFREDLYYRINLIHLHLPPLRERQEDIQLLVEAFSEAFAQSNGLPHAVWSAEAMRRICAMPLPGNVRELKNVVERTLLLSGSREISARDVADEGHHHHHH”, the “soluble on expression in E. coli” value is reported as “soluble”. For “MSLSTLQDLEKTLWATADKMRANMDPAEYKHIVLGLIFLKYISDSFAGRRAELERKFSDAGDDYYLGGDDPTYLASELEERDYYKEVNVFWVPEPARWESLRAAAKQVDIGKRIDDALADIEAENPQLKNILDKRYARAQLPDGKLGELVDMISIIGFSSDANKARDLLGQVYEYFLGQFASAEGKRGGQFYTPASIVKTLVAVLNPHHGKVYDPCCGSGGMFVQSEKFIEAHGGKLGDVSIYGQESNPTTWRLAAMNLAIRGMDFNLGKEPADSFIRNQHSDLRADFVLANPPFNISDWWHGSLDGDSRWVYGTPPQGNANYAWLQHMLFHLKSSGRAGIVLANGSMSSSQNSEGDIRRAMVEADVVEVMVALPGQLFFNTQIPACLWFLAKQKNKRPGEVLFIDARKLGTNISRVQIELLDSDIESIAQTVANWRGVPLEVDGEIAEYADVAGFCRSVPLAEIAEHGHVLTPGRYVGAEAVEEGHHHHHH”, the “soluble on expression in E. coli” value was “not soluble”. For “WFDTLNCHRLSDYQVGRAADIRLPEGCAFSDGIGSAFALEEAPPFSGRPDMPTAADFLALAAKGGYPAVHAAHAGLLYVRNKIALTAKEQAERRARP”, the “soluble on expression in E. coli” value was “not soluble”. With “MGSDKIHHHHHHMMSDASLPALTLPPALRRVLPAARWERVTEGESGAGVWRSTRFVVKVQSRTLYPASTLLQERERLRWFAGRLPVPQVVAYEDDGEQEYLAMTRLPGIAMSHPDAALHPERMVNLLARALRELHALPVRDCPFNMSLGVRLKLARERVAAGVVDESDFDEERQGQSAVQVFNQLARTRPAEEDLVVTHGDACLPNVIVQGEYVEGLIDLGRAGIADRHMDLALAWRSTRRNLGATYAGMLLDLYGRELVDEGKLAYYQLLDELF” the “soluble on expression in E. coli” value was “not soluble”. For “MICFRTAFILILGVVIGTTAKRHNVRRHVNGKWTDKHCEEPPSLKEDLATWMQISMSGQFDDTALEEWSTNGKEPEICEKSPKADGVTTIMERALCPWDSRVNYQESREPKLIAESVCLCRKSRGSTGAFCMPIVRKVPILRRVSCDRSTGLWNYVRSTELITVGCHSVLPRTQRAARLAHLSSSRIIV”, the “soluble on expression in E. coli” value was “not soluble”. For “DNPLESPPPEIVKQGKEAVRQYFQSIEEARSKGEALVHLQEIKVHLIGDGMAGKTSLLKQLIGETFDPKESQTHGLNVVTKQAPNIKGLENDDELKECLFHFWDFGGQEIMHASHQFFMTRSSVYMLLLDSRTDSNKHYWLRHIEKYGGKSPVIVVMNKIDENPSYNIEQKKINERFPAIENRFHRISCKNGDGVESIAKSLKSAVLHPDSIYGTPLAPSWIKVKEKLVEATTAQRYLNRTEVEKICNDSGITDPGERKTLLGYLNNLGIVLYFEALDLSEIYVLDPHWVTIGVYRIINSSKTKNGHLNTSALGYILNEEQIRCDEYDPAKNNKFTYTLLEQRYLLDIMKQFELCYDEGKGLFIIPSNLPTQIDNEPEITEGEPLRFIMKYDYLPSTIIPRLMIAMQHQILDRMQWRYGMVLKSQDHEGALAKVVAETKDSTITIAIQGEPRCKREYLSIIWYEIKKINANFTNLDVKEFIPLPGHPDELVEYKELLGLEKMGRDRYVSGKLEKVFSVSKMLDSVISKEERNKER”, the “soluble on expression in E. coli” value was “soluble”.
